From the DeepSol protein solubility set come the findings set out here.

The series in a line: soluble on expression in E. coli; label from the status in PepcDB or PDB records.
Turning to “MGSDKIHHHHHHMSSEHQLLVGLLKKLKADALVLPTLPEVAMRVQEVVSRPDSSPKQVAEIIGQDAAISARMIKVANSAMYSRGIKAENINAAVTRIGLTQIKAIATSVAMEQLFISTNEMVWEVMDEVWRASIEVTSAACALLLKYSKTHKGCGLNYDTLTLASLVHNIGALPVLTEAEANPHLFTSIEQLRALVRKMQGPLGRAVLKSWDFSPEVTEVVERWADLPYLPEQVTYLDFVRAAAFYTGELRAGHDLEERLDVFLQRGLPVSPEYLGSDEFLDNYHSIKLSYE”, the “soluble on expression in E. coli” value is on record as “not soluble”.
For the sequence “METKEAIIHVIVATAEWGKDQLRYRRHRLAEFLAAQEETKEVIWVCPAPRAQGKEFQEVHSGIRQFAVKDLLQKKMFRFGRYTDVFYRHKLSPLLDELTPASANGERCCLWYTFPGFPLLSSLYSWDQVIYDCSDLWAAPISGRSNLLSEFRRKVIKSAELRIIQRADSITCSSDYLHKEVDKKLTAGREKVHTVENGVEYELFSANKQAPDRSILQGREGIVLGFIGGIKPKLDFKMIKEAALQKPDWTFLWVGPDATNGDVSFQELLRLPNVIWTGPADPKEVPHYMELIDIGIMPYKQSPYNQAVFPLKLFEFLAAGKPVVGTNLPSTSKMQKPYVYEYVEGDHPIDFIAACEKVLGQNGDETYKEMRRNIARTQDWNCLFRQIMKYTGIQKHAMAGDPLEHHHHHH”, the “soluble on expression in E. coli” value is “not soluble”.
For the sequence “MRKPTDTLPVNLQRRRLLCAAGALLLSPLAHAGAQREETLADDVASVMRSSVGSVNPPRLVFDNPKEGERWLSAMSARLARFVPEEEERRRLLVNIQYESSRAGLDTQIVLGLIEVESAFRQYAISGVGARGLMQVMPFWKNYIGKPAHNLFDIRTNLRYGCTILRHYRNLEKGNIVRALARFNGSLGSNKYPNAVLGAWRNRWQWR”, the “soluble on expression in E. coli” value is given as “not soluble”.
The same measure for “ASMTGGQQMGRDPGMTVTSQVKPEDEMDNWGRLILDGVSYSDMVGARDRPKEITWFDYWMSLANEYEQEAERKVALGHDLSAGELLMSAALCAQYAQFLWFDERRQKGQARKVELYQKAAPLLSPPAERHELVVDGIPMPVYVRIPEGPGPHPAVIMLGGLESTKEESFQMENLVLDRGMATATFDGPGQGEMFEYKRIAGDYEKYTSAVVDLLTKLEAIRNDAIGVLGRSLGGNYALKSAACEPRLAACISWGGFSDLDYWDLETPLTKESWKYVSKVDTLEEARLHVHAALETRDVLSQIACPTYILHGVHDEVPLSFVDTVLELVPAEHLNLVVEKDGDHCCHNLGIRPRLEMADWLYDVLVAGKKVAPTMKGWPLEHHHHHH”: “soluble”; for “RMSEQSICQARAAVMVYDDANKKWVPAGGSTGFSRVHIYHHTGNNTFRVVGRKIQDHQVVINCAIPKGLKYNQATQTFHQWRDARQVYGLNFGSKEDANVFASAMMHALEVLNS”: “soluble”.
On to “MAPALVQRRKKVAMIGSGMIGGTMGYLCALRELADVVLYDVVKGMPEGKALDLSHVTSVVDTNVSVRAEYSYEAALTGADCVIVTAGLTKVPGKPDSEWSRNDLLPFNSKIIREIGQNIKKYCPKTFIIVVTNPLDCMVKVMCEASGVPTNMICGMACMLDSGRFRRYVADALSVSPRDVQATVIGTHGDCMVPLVRYITVNGYPIQKFIKDGVVTEKQLEEIAEHTKVSGGEIVRFLGQGSAYYAPAASAVAMATSFLNDEKRVIPCSVYCNGEYGLKDMFIGLPAVIGGAGIERVIELELNEEEKKQFQKSVDDVMALNKAVAALQAPG”, for which the “soluble on expression in E. coli” value is “soluble”.
Regarding “MTDNPAVDKRDQILAAAEQLIAESGFQGLSMQKLANEAGVAAGTIYRYFSDKEHLLEEVRLNVAKRIASAVQAGVNDDMPLKECYRTMWLNIWNLAGSNLNAISNRVQYDSLPCTTRNKTWELERKMFAQVDRLFNQGKEEGVFKPLDNEVLSGLSFEASVALARKHALGFYQLDDDALEAAIEASWDAIIKH”, the “soluble on expression in E. coli” value was “soluble”.
Turning to “MVMKQTKQTNILAGAAVIKVLEAWGVDHLYGIPGGSINSIMDALSAERDRIHYIQVRHEEVGAMAAAADAKLTGKIGVCFGSAGPGGTHLMNGLYDAREDHVPVLALIGQFGTTGMNMDTFQEMNENPIYADVADYNVTAVNAATLPHVIDEAIRRAYAHQGVAVVQIPVDLPWQQIPAEDWYASANSYQTPLLPEPDVQAVTRLTQTLLAAERPLIYYGIGARKAGKELEQLSKTLKIPLMSTYPAKGIVADRYPAYLGSANRAAQKPANEALAQADVVLFVGNNYPFAEVSKAFKNTRYFLQIDIDPAKLGKRHKTDIAVLADAQKTLAAILAQVSERESTPWWQANLANVKNWRAYLASLEDKQEGPLQAYQVLRAVNKIAEPDAIYSIDVGDINLNANRHLKLTPSNRHITSNLFATMGVGIPGAIAAKLNYPERQVFNLAGDGGASMTMQDLATQVQYHLPVINVVFTNCQYGFIKDEQEDTNQNDFIGVEFNDIDFSKIADGVHMQAFRVNKIEQLPDVFEQAKAIAQHEPVLIDAVITGDRPLPAEKLRLDSAMSSAADIEAFKQRYEAQDLQPLSTYLKQFGLDDLQHQIGQGGF”, the “soluble on expression in E. coli” value is reported as “soluble”.
For the sequence “MYHGMNPSNGDGFLEQQQQQQQPQSPQRLLAVILWFQLALCFGPAQLTGGFDDLQVCADPGIPENGFRTPSGGVFFEGSVARFHCQDGFKLKGATKRLCLKHFNGTLGWIPSDNSICVQEDCRIPQIEDAEIHNKTYRHGEKLIITCHEGFKIRYPDLHNMVSLCRDDGTWNNLPICQGCLRPLASSNGYVNISELQTSFPVGTVISYRCFPGFKLDGSAYLECLQNLIWSSSPPRCLALEGGRPEHLFPVLYFPHIRLAAAVLYFCPVLKSSPTPAPTCSSTSTTTSLF”, the “soluble on expression in E. coli” value was “soluble”.
In the case of “GPGSMHEDGQFLRAFLLRVLANDMQRMLATNTCATYFRNIPLEPEYDASGNRTNTPENVVMEKRLRVMDDISKLLRTYVERAEYAANKSKDINRRIYFTAEQIETGDYGALIGPRGLVHQQLEKETNCHIVLVGRGITNPLKDTNPNAASMALEDPHVRITATTEEDLQTAAERIEWILSDEPEAVEFRENNRRRMAQVDGRYDPRTWMTAAEKRKKAAAEKAAAAGGAAAGEDETKAEKGRKREREEAPVEEEDTELNEFLEDL”, the “soluble on expression in E. coli” value is recorded as “soluble”.
“MKTVMATGTFDIIHPGHGFFLEEARKLGGEDARLVVVLARDSTVRARKRTPIVGEKQRLEVVRMLKPVDEAYLGSETDMFEIVHRIKPDIIAIGPDQKFDVDELRDELRRRGLGCEVRRIEKYRDAELDSTCKIIKRIRSMEFDEDSLKNC”: the “soluble on expression in E. coli” value was “not soluble”.
In the case of VNFDDIASSENLLHLTANRPKMPGRRLPG, the “soluble on expression in E. coli” value is listed as “soluble”.
For the sequence “MSLGIGHPMWVGWCIIIAMRSIPASVESSVLRWARESCGLTEVAAARKLGLPDDRVAAWEVGEVVPTIAQLRKAAEVYKRSLAVFFLSEPPEGFDTLRDFRRLDGAASGQWTPGLHEEFRRAHTQRDFALELADAEDREIPGAWRLPLSGDEADADIAARIRKALIEVSPLPIPVASVDPYEHLNAWVSAIETSGVLVLATRGGKVAIDEMRGMCLYFDELPVIVLNGSDHPRPRLFSLLHEFVHVVLHTEGLCDVIADAHPSTQDRSLEARCNAIAAAVLMPADVVRARPEVIVRSETPSSWDYESLRPVAAHFGVSAEAFLRRLSTLGIVPVEVYRQRRAEFIAAHEDEAEGHHHHHH”, the “soluble on expression in E. coli” value was “soluble”.
Consider “MSHYGGNPRGNSSHQFGRKDFQQSDSKHIPKITGQPLPNEVQIPFDNMIYETRNPPKFEKQAKFISEYCINYDRKLQLGRMRAKKFHDKLPPNNLSLDLGKGFETFDPKEGDEKIIMLLEWINQMAPEGGRLKKVIHEADVVCWRGLITKICSTIYNKEEGWRIDAIKRKGVIFLCEEKTEQAKNRDLNQTDLDKRMSYWGHKFEQYVTLDDDAEQPDTSSPVTTKEEYAVVFRNDLQTDQRLNPEKRSIGIFYSGEVDCLDRHGNMLELKTQKGELGHGFYKYSKSFKWWLQSSLVNVDHIIVGLRTQEGHVKSLTSLRTREIPQRASWNFRAGFEFLSTIFTYILNCLEKDGDACVIEYRSEMGIHKGIQMRRVPVDEFDFVPNEFLEKFC”, for which the “soluble on expression in E. coli” value was “not soluble”.
The same measure for “MKALARFGKAFGGYKMIDVPQPMCGPEDVVIEIKAAAICGADMKHYNVDSGSDEFNSIRGHEFAGCIAQVGEKVKDWKVGQRVVSDNSGHVCGVCPACEQGDFLCCTEKVNLGLDNNTWGGGFSKYCLVPGEILKIHRHALWEIPDGVDYEDAAVLDPICNAYKSIAQQSKFLPGQDVVVIGTGPLGLFSVQMARIMGAVNIVVVGLQEDVAVRFPVAKELGATAVVNGSTEDVVARCQQICGKDNLGLVIECSGANIALKQAIEMLRPNGEVVRVGMGFKPLDFSINDITAWNKSIIGHMAYDSTSWRNAIRLLASGAIKVKPMITHRIGLSQWREGFDAMVDKTAIKVIMTYDFDE”: “soluble”.
As for “MGSSHHHHHHSSGRENLYFQGHMHALSPLALAALIVATAPAFADEAKKPGTVFKDCKDCPEMVVLPAGSFTMGTPDDEVGRQPDEGPLHDVTFAKPFAISRYQVTAGELDAYLKATGVKLADGDTRPGRECIAGKPRYQQGPRQPAVCVDYNDVKNYAAWLSKKTGKRYRMLSEAEREYGARAGSAGPFPFPFDEGKEYSIAKHANTYGASDGYNFTSPVGSFPPNAFGVYDMHGNVYEWVADCWHDHYNGAPSDGSAWMEEKCELVQIRGNDWGEPPIFSRSGNRNNAAPSDRGDWIGFRVAREL”, the “soluble on expression in E. coli” value was “soluble”.
For the sequence “MGEEILTERNQLSRQDASCFRSPRSPLGRTDDAFFELDDDDDLSSPSVPGSPVDPPSISVPLPPKSAPPCPTQPAPLTNGDLYPTILSNGTPIPNGRITPALSTVSVSLIHEARLQQSLSTPCNGSEEEMHNGQVRKESEYRRFKSEGSTAGASLPAAEKTHMDELSPVDQRSTSGTARFLIQQDSVVNPSTKMSNTEQVAMMHTLKTKLSKYQAMMDKAFEEIAKVEDANIIEGCTIVRKLMRKVWNTPKVSADLANALCDYLRDRDYFDKLIKMFISPNTAACDQVRMECGKVLEECTSSANLEYIVNKSYTKKIMIVAMKLNKTPDQQRLSLSLIGNLFKHSNAVSLSLIETDVIDHIILTFKRAPECPDILRHAALALANILLYTCFEGKKKIIQKKIPEWLFFLASQADDVTRYYACIAVCTIVSVKEFEPLVRKSDTMKLVEPFLQVHDPATFARDYHKYAQGNTKEWLERLLPMLQPSRRREARSVAAFHFTLEATIKKEQNKLDVFQEIGAIQALKEVASSPDEVAAKFASEALTVIGEEVPYKLAQQVPGWTCADVQYWVKKIGFEEYVEKFAKQMVDGDLLLQLTENDLKHDVGMISGLHRKRFLRELQTLKVAADYSSVDESNLDNFLMGLSPELSVYTYQMLTNGVNRSLLSSLTDEMMQNACGITNPIHRLKLTQAFETAKHPDDVEVAMLSKQIDVFISYRRSTGNQLASLIKVLLQLRGYRVFIDVDKLYAGKFDSSLLKNIQAAKHFILVLTPNSLDRLLNDDNCEDWVHKELKCAFEHQKNIIPIFDTAFEFPTKEDQIPNDIRMITKYNGVKWVHDYQDACMAKVVRFITGELNRTTPTTKEMPSISRKTTQQRWQTTNTVSRTGPSRSIGGPRMEPPTPTFFSVTPTGSQERATSTRRKIQPSASTTSDRN”, the “soluble on expression in E. coli” value is “not soluble”.
As to “MQCNVCEFGCEIDEYSRGRCRTYVCTGDTIIQDPDMGYLGAYPVSIETIPLLHYYPSGKFLQVFGTGCNFQCSGCVARLLASGKSLSSTTLTPSQVVEKALQQDCLGVVSTLNEPAANYYLFRDLAVQAKEKGLLVGCSTNCYFTEETLNKLGQLVDFMNVGIKGYSDRSYISCGVPSSAPVFRNISLLFDMGVHVETSVVYSRGNEADVIKVAEAVSDISPTIPVQVMRFIPFGDAPIELEPSVGEAESLCADLRKYVDYVYLFNSPGTELLNTYCPECGSLLAEREFYGPMGSRPVRPWITYSCDCGKTVPVKGTTAVERFNEEGFMGGYRISRAFGMVHGVLTCLGILDDSRLIDVWREISDSGTLMKVHHMIQQPYAYLDFVRLIAERANMPEKGEELISFIHTRLELVKSLAAENSGHKVYYCMGSPLFALNAGRMENNLVAFSGGLSINKQLQKEGKPGINVSPSFINENNPDTIFISGFLSRPLDEFYTLCRQYGIETDAVKQQRVYEVPPSWDFGNPRWILGLMYIADKLYPGNSGIDLEKEADEFYRQFYGMPYLEHHHHHH”, the “soluble on expression in E. coli” value is reported as “not soluble”.
